Measurements from US11466066B2, “Variants of human BMP7 protein” (ELI LILLY AND COMPANY, priority 2017, dated 2022).
Residue numbers refer to the chain shown, from its start. Numbers in names are those of the source.

B1: human BMP7 protein: wild type human BMP7 protein of Example 2; pro or mature form not stated (protein, UniProt P18075 293-431, looked up)
Bone morphogenetic protein 7: STGSKQRSQNRSKTPKNQEALRMANVAENSSSDQRQACKKHELYVSFRDLGWQDWIIAPEGYAAYYCEGECAFPLNSYMNATNHAIVQTLVHFINPETVPKPCCAPTQLNAISVLYFDDSSNVILKKYRNMVVRACGCH
B2: Y65G/I86L/T89A/N110G: human mature BMP7 protein variant, SEQ ID NO: 5 (protein)
chain: B1 Bone morphogenetic protein 7 with Y65G, I86L, T89A, N110G
B3: Y65G/T89A/N110G/Y128F: human mature BMP7 protein variant, SEQ ID NO: 9 (protein)
chain: B1 Bone morphogenetic protein 7 with Y65G, T89A, N110G, Y128F
B4: F93V/N110G: human mature BMP7 protein variant F93V/N110G, SEQ ID NO: 4 (protein)
chain: B1 Bone morphogenetic protein 7 with F93V, N110G
B5: Y65G/I86L/N110G: human mature BMP7 protein variant, SEQ ID NO: 10 (protein)
chain: B1 Bone morphogenetic protein 7 with Y65G, I86L, N110G
B6: Y65G/I86L/N110G/Y128F: human mature BMP7 protein variant, SEQ ID NO: 6 (protein)
chain: B1 Bone morphogenetic protein 7 with Y65G, I86L, N110G, Y128F
B7: Y65G/V114M: human mature BMP7 protein variant, SEQ ID NO: 11 (protein)
chain: B1 Bone morphogenetic protein 7 with Y65G, V114M
B8: Y65G/I86L/N110G/Y128W: human mature BMP7 protein variant, SEQ ID NO: 7 (protein)
chain: B1 Bone morphogenetic protein 7 with Y65G, I86L, N110G, Y128W
B9: V114M: SEQ ID NO: 2 having the single amino acid mutation V114M (protein, listed as Homo sapiens)
chain: B1 Bone morphogenetic protein 7 with V114M
B10: I94F: SEQ ID NO: 2 having the single amino acid mutation I94F (protein, listed as Homo sapiens)
chain: B1 Bone morphogenetic protein 7 with I94F
B11: A37P: SEQ ID NO: 2 having the single amino acid mutation A37P (protein, listed as Homo sapiens)
chain: B1 Bone morphogenetic protein 7 with A37P
B12: E60Q: SEQ ID NO: 2 having the single amino acid mutation E60Q (protein, listed as Homo sapiens)
chain: B1 Bone morphogenetic protein 7 with E60Q
B13: I86L: SEQ ID NO: 2 having the single amino acid mutation I86L (protein, listed as Homo sapiens)
chain: B1 Bone morphogenetic protein 7 with I86L
B14: D33M: SEQ ID NO: 2 having the single amino acid mutation D33M (protein, listed as Homo sapiens)
chain: B1 Bone morphogenetic protein 7 with D33M
B15: T89A: SEQ ID NO: 2 having the single amino acid mutation T89A (protein, listed as Homo sapiens)
chain: B1 Bone morphogenetic protein 7 with T89A
B16: Y65G: SEQ ID NO: 2 having the single amino acid mutation Y65G (protein, listed as Homo sapiens)
chain: B1 Bone morphogenetic protein 7 with Y65G
B17: N110G: SEQ ID NO: 2 having the single amino acid mutation N110G (protein, listed as Homo sapiens)
chain: B1 Bone morphogenetic protein 7 with N110G
B18: I86V: SEQ ID NO: 2 having the single amino acid mutation I86V (protein, listed as Homo sapiens)
chain: B1 Bone morphogenetic protein 7 with I86V
B19: V91M: SEQ ID NO: 2 having the single amino acid mutation V91M (protein, listed as Homo sapiens)
chain: B1 Bone morphogenetic protein 7 with V91M
B20: F93V: SEQ ID NO: 2 having the single amino acid mutation F93V (protein, listed as Homo sapiens)
chain: B1 Bone morphogenetic protein 7 with F93V

Test system: RAR alpha
Test: RAR alpha protein expression, Western Blot
Format: cell-based, mouse
Settings: MFc7 and 3T3-L1 cell lines; 1 μg/mL, 48 hours; Western Blot intensity
Description: (§1) 3T3-L1 fibroblasts and MFc7 mouse renal myofibroblasts may be maintained under routine cell culture conditions in DMEM/10% calf serum medium or OPTI-MEM/10% FBS medium, respectively. The cells may be plated in 10 cm tissue culture plates at a seeding density of 500,000 cells/plate. After 48 hours, the cells may be washed with PBS prior to the addition of either DMEM/2% dialyzed FBS or OPTI-MEM/2% dialyzed FBS medium containing 1 μg/mL human BMP7 protein or 1 μg/mL of a human BMP7 protein variant. The cells may be incubated for 48 hours and then rinsed with ice-cold PBS, and then lysed with Protein Extraction Reagent. Then lysates may be centrifuged at 14,000×g for 15 minutes. A Bradford protein assay may be performed to determine the protein concentration of each lysate. Equivalent amounts of protein (for example, 25 μg) may be resolved by SDS-PAGE and then transferred to nitrocellulose membranes for Western Blot analysis. The membranes may be probed with an anti-RAR alpha antibody and/or an anti-RAR gamma antibody.

| Molecule | RAR alpha protein expression |
| --- | --- |
| B1 | stimulated |

Test system: RAR gamma
Test: RAR gamma protein expression, Western Blot
Format: cell-based, mouse
Settings: MFc7 and 3T3-L1 cell lines; 1 μg/mL, 48 hours; Western Blot intensity
Description: as §1

| Molecule | RAR gamma protein expression |
| --- | --- |
| B1 | stimulated |

Test system: MFc7 mouse renal myofibroblasts
Test: MFc7 bioassay
Format: cell-based
Settings: EC50 of wild type BMP7 protein/EC50 of the variant; multiple amino acid changes (Table 3)
Description: MFc7 mouse renal myofibroblasts (mouse kidney fibroblast cell line) may be maintained under routine cell culture conditions in OPTI-MEM/10% FBS medium. The cells may be plated in 10 cm tissue culture plates at a seeding density of 500,000 cells/plate. After approximately 48 hours, the cells may be washed with phosphate buffered saline (PBS) prior to the addition of OPTI-MEM/2% dialyzed fetal bovine serum (FBS) medium containing 1 μg/ml BMP7 protein or 1 μg/ml of a BMP7 protein variant and incubated for 48 hours. After treatment the cells may be rinsed with PBS and stored at −80° C. for 20 minutes. After thawing the cells at 37° C. for 30 minutes 100 μl of para-nitrophenyl phosphate (PNPP) may be added. The plate may be incubated at 37° C. for 1 hour. The absorbance at 405 nm may be read utilizing a plate reader. The average relative potency (EC50 of wild type BMP7 protein/EC50 of the BMP7 protein variant) of certain human BMP7 protein variants of the present invention may be calculated based on such readings.

| Molecule | Average Relative Potency |
| --- | --- |
| B2 | 10 |
| B3 | 6.2 |
| B4 | 9 |
| B5 | 8.7 |
| B6 | 7 |
| B7 | 5.0 |
| B8 | 16 |

Same assay, conditions: EC50 of wild type BMP7 protein/EC50 of the variant; single amino acid change (Table 4)

| Molecule | Average Relative Potency |
| --- | --- |
| B9 | 9.4 |
| B10 | 7.5 |
| B11 | 7.5 |
| B12 | 5.5 |
| B13 | 5.9 |
| B14 | 3.3 |
| B15 | 3 |
| B16 | 1.3 |
| B17 | 1.7 |
| B18 | 17.4 |
| B19 | 3.3 |
| B20 | 16 |

Test system: not listed separately
Test: Thermal unfolding assay (circular dichroism)
Format: physicochemical
Settings: CD at 208 nm; 10 mM citrate, 300 mM NaCl, pH 7.4
Description: The effect of temperature on the conformational stability of human BMP7 protein variants may be followed by circular dichroism (CD) on a Jasco J-810 instrument equipped with a thermoelectric sample compartment. Briefly stated, 0.2-1.0 mg/mL pro-BMP7 may be formulated in storage buffer (10 mM citrate, 300 mM NaCl, pH 7.4) and loaded into a 0.02 cm path-length CD cuvette. The sample may be heated from 20 to 80° C. at a linear rate of 1° C./minute and the resulting CD signal at 208 nm may be recorded every 0.2° C. using a 1 second signal response time. A non-linear fit to equation 1 may be performed by the program JMP (SAS Institute Inc, Cary, N.C.) to obtain the thermal unfolding mid-point (Tm).
[formula] where, Yu and Yf are fit and represent the Y-intercept of the pre- and post-transition baselines, respectively. Mu and Mf are fit and represent the slope of the pre- and post-transition baselines, respectively. Hm and S are fit and represent enthalpy and entropy, respectively. T is the measured temperature in Kelvin units.

| Molecule | thermal unfolding mid-point (Tm) |
| --- | --- |
| human pro-BMP7 protein variant V114M: human pro-BMP7 protein variant with V114M in the mature domain | 64.5 °C |

Test system: female CB17SC-M SCID mice
Test: Ectopic bone formation model
Format: in vivo
Settings: 3 μg/100 μl subcutaneous; CT scan on Day 13
Description: Ectopic bone formation (EBF) may be measured in female CB17SC-M SCID mice upon subcutaneous administration of certain human BMP7 protein variants of the present invention compared to wild type human mature BMP7.
Briefly described, the mice may be anesthetized with 3% isoflurane and are injected with 3 μg/100 μl of the human BMP7 protein variant, wild type human mature BMP7 protein or a vehicle control on the back left flank. The back right flank of each mouse may serve as a control (no injection). Vehicle (pH 4.5): 0.5% Sucrose, 2.5% Glycine, 5 mM L-Glutamic Acid, 5 mM NaCl, 0.01% polysorbate 80, and, 0.1% BSA.
EBF may be measured by a CT scan on Day 13 after injection of the human BMP7 protein variant or wild type human mature BMP7 protein.

| Molecule | Ectopic Bone Formation Volume |
| --- | --- |
| B8 | 11 mm^3 |
